In this test the target is human IgG1 Fc fragment released from ROR-ED-Fc by 3C protease (human). The test is described as follows: SEC; Superdex 200 10/300 of the fusion protein cleaved with 3C protease; 50 mM HEPES, 500 mM NaCl, 150 mM KCl, 300 mM arginine, 5% glycerol; ROR-ED at 12.4 ml, Fc at 14.3 ml; mass estimated against standards, glycans considered.

With “human IgG1 Fc fragment released from ROR-ED-Fc by 3C protease (domain or fragment)”, the stoichiometry N is 2.

What is called stoichiometry N is a count of units in the complex or per binding partner.

The values are drawn from PMC6030378.
